In patent US7803382B2, “Method for inducing immune response to NY-CO-58” (Ludwig Institute for Cancer Research Ltd., priority 2001, dated 2010):

B1: CO-45 (Tudor like): serologically defined colon cancer antigen, protein SEQ ID NO:21 (protein, listed as Homo sapiens)
chain: RVKATLSERKIGDSCDKDLPLKFCEFPQKTIMPGFKTTVYVSHINDLSDFYVQLIEDEAEISHLSERLNSVKTRPEYYVGPPLQRGDMICAVFPEDNLWYRAVIKEQQPNDLLSVQFIDYGNVSVVHTNKIGRLDLVNAILPGLCIHCSLQGFEVPDNKNSKKMMHYFSQRTSEAAIRCEFVKFQDRWEVILADEHGIIADDMISRYALSEKSQVELSTQVIKSASSKSVNKSDIDTSVFLNWYNPEKKMIRAYATVIDGPEYFWCQFADTEKLQCLEVEVQTAGEQVADRRNCIPCPYIGDPCIVRYREDGHYYRALITNICEDYLVSVRLVDFGNIEDCVDPKALWAIPSELLSVPMQAFPCCLSGFNISEGLCSQEGNDYFYEIITEDVLEITILEIRRDVCDIPLAIVDLKSKGKSINEKMEKYSKTGIKSALPYENIDSEIKQTLGSYNLDVGLKKLSNKAVQNKIYMEQQTDELAEITEKDVNIIGTKPSNFRDPKTDNICEGFENPCKDKIDTEELEGELECHLVDKAEFDDKYLITGFNTLLPHANETKEILELNSLEVPLSPDDESKEFLELESIELQNSLVVDEEKGELSPVPPNVPLSQECVTKGAMELFTLQLPLSCEAEKQPELELPTAQLPLDDKMDPLSLGVSQKAQESMCTEDMRKSSCVESFDDQRRMSLHLHGADCDPKTQNEMNICEEEFVEYKNRDAISALMPFSLRKKAVMEASTIMVYQIIFQNYRTPTL
B2: CO-61 (HIP1R): serologically defined colon cancer antigen, protein SEQ ID NO:19 (protein, listed as Homo sapiens)
chain: MFDYMDCELKLSESVFRQLNTAIAVSQMSSGQCRLAPLIQVIQDCSHLYHYTVKLLFKLHSCLPADTLQGHRDRFHEQFHSLRNFFRRASDMLYFKRLIQIPRLPEGPPNFLRASALAEHIKPVVVIPEEAPEDEEPENLIEISTGPPAGEPVVVADLFDQTFGPPNGSVKDDRDLQIESLKREVEMLRSELEKIKLEAQRYIAQLKSQVNALEGELEEQRKQKQKALVDNEQLRHELAQLRAAQLEGERSQGLREEAERKASATEARYNKLKEKHSELVHVHAELLRKNADTAKQLTVTQQSQEEVARVKEQLAFQVEQVKRESELKLEEKSDQLEKLKRELEAKAGELARAQEALSHTEQSKSELSSRLDTLSAEKDALSGAVRQREADLLAAQSLVRETEAALSREQQRSSQEQGELQGRLAERESQEQGLRQRLLDEQFAVLRGAAAEAAGILQDAVSKLDDPLHLRCTSSPDYLVSRAQEALDAVSTLEEGHAQYLTSLADASALVAALTRFSHLAADTIINGGATSHLAPTDPADRLIDTCRECGARALELMGQLQDQQALRHMQASLVRTPLQGILQLGQELKPKSLDVRQEELGAVVDKEMAATSAAIEDAVRRIEDMMNQARHASSGVKLEVNERILNSCTDLMKAIRLLVTTSTSLQKEIVESGRGAATQQEFYAKNSRWTEGLISASKAVGWGATQLVEAADKVVLHTGKYEELIVCSHEIAASTAQLVAASKVKANKHSPHLSRLQECSRTVNERAANVVASTKSGQEQIEDRDTMDFSGLSLIKLKKQEMETQVRVLELEKTLEAERMRLGELRKQHYVLAGASGSPGEEVAIRPSTAPRSVTTKKPPLAQKPSVAPRQDHQLDKKDGIYPAQLVNY
B3: MAGE-3: serologically defined colon cancer antigen, protein SEQ ID NO:29 (protein, listed as Homo sapiens)
chain: MPLEQRSQHCKPEEGLEARGEALGLVGAQAPATEEQEAASSSSTLVEVTLGEVPAAESPDPPQSPQGASSLPTTMNYPLWSQSYEDSSNQEEEGPSTFPDLESEFQAALSRKVAELVHFLLLKYRAREPVTKAEMLGSVVGNWQYFFPVIFSKASSSLQLVFGIELMEVDPIGHLYIFATCLGLSYDGLLGDNQIMPKAGLLIIVLAIIAREGDCAPEEKIWEELSVLEVFEGREDSILGDPKKLLTQHFVQENYLEYRQVPGSDPACYEFLWGPRALVETSYVKVLHHMVKISGGPHISYPPLHEWVLREGEE
B4: CO-26 (MNK 1): serologically defined colon cancer antigen, protein SEQ ID NO:27 (protein, listed as Homo sapiens)
chain: HIQKQKHFNEREASRVVRDVAAALDFLHTKGIAHRDLKPENILCESPEKVSPVKICDFDLGSGMKLNNSCTPITTPELTTPCGSAEYMAPEVVEVFTDQATFYDKRCDLWSLGVVLYIMLSGYPPFVGHCGADCGWDRGEVCRVCQNKLFESIQEGKYEFPDKDWAHISSEAKDLISKLLVRDAKQKLSAAQVLQHPWVQGQAPEKGLPTPQVLQRNSSTMDLTLFAAEAIALNRQLSQHEENELAEEPEALADGLCSMKLSPPCKSRLARRRALAQAGRGENRSPPTAL
B5: CO-9 (HDAC 5): serologically defined colon cancer antigen, protein SEQ ID NO:18 (protein, listed as Homo sapiens)
chain: EFLLSKSKEPTPGGLNHSLPQHPKCWGAHHASLDQSSPPQSGPPGTPPSYKLPLPGPYDSRDDFPLRKTASEPNLKVRSRLKQKVAERRSSPLLRRKDGTVISTFKKRAVEITGAGPGASSVCNSAPGSGPSSPNSSHSTIAENGFTGSVPNIPTEMLPQHRALPLDSSPNQFSLYTSPSLPNISLGLQATVTVTNSHLTASPKLSTQQEAERQALQSLRQGGTLTGKFMSTSSIPGCLLGVALEGDGSPHGHASLLQHVLLLEQARQQSTLIAVPLHGQSPLVTGERVATSMRTVGKLPRHRPLSRTQSSPLPQSPQALQQLVMQQQHQQFLEKQKQQQLQLGKILTKTGELPRQPTTHPEETEEELTEQQEVLLGEGALTMPREGSTESESTQEDLEEEDEEEDGEEEEDCIQVKDEEGESGAEEGPDLEEPGAGYKKLFSDAQPLQPLQVYQAPLSLATVPHQALGRTQSSPAAPGGMKNPPDQPVKHLFTTSVVYDTFMLKHQCMCGNTHVHPEHAGRIQSIWSRLQETGLLSKCERIRGRKATLDEIQTVHSEYHTLLYGTSPLNRQKLDSKKLLGPISQKMYAVLPCGGIGVDSDTVWNEMHSSSAVRMAVGCLLELAFKVAAGELKNGFAIIRPPGHHAEESTAMGFCFFNSVAITAKLLQQKLNVGKVLIVDWDIHHGNGTQQAFYNDPSVLYISLHRYDNGNFFPGSGAPEEVGGGPGVGYNVNVAWTGGVDPPIGDVEYLTAFRTVVMPIAHEFSPDVVLVSAGFDAVEGHLSPLGGYSVTARCFGHLTRQLMTLAGGRVVLALEGGHDLTAICDASEACVSALLSVKLQPLDEAVLQQKPNINAVATLEKVIEIQSKHWSCVQKFAAGLGRSLRGAQAGETEEAEM
B6: REN-32 (Lamin C): serologically defined colon cancer antigen, protein SEQ ID NO:25 (protein, listed as Homo sapiens)
chain: METPSQRRATRSGAQASSTPLSPTRITRLQEKEDLQELNDRLAVYIDRVRSLETENAGLRLRITESEEVVSREVSGIKAAYEAELGDARKTLDSVAKERARLQLELSKVREEFKELKARNTKKEGDLIAAQARLKDLEALLNSKEAALSTALSEKRTLEGELHDLRGQVAKLEAALGEAKKQLQDEMLRRVDAENRLQTMKEELDFQKNIYSEELRETKRRHETRLVEIDNGKQREFESRLADALQELRAQHEDQVEQYKKELEKTYSAKLDNARQSAERNSNLVGAAHEELQQSRIRIDSLSAQLSQLQKQLAAKEAKLRDLEDSLARERDTSRRLLAEKEREMAEMRARMQQQLDEYQELLDIKLALDMEIHAYRKLLEGEEERLRLSPSPTSQRSRGRASSHSSQTQGGGSVTKKRKLESTESRSSFSQHARTSGRVAVEEVDEEGKFVRLRNKSNEDQSMGNWQIKRQNGDDPLLTYRFPPKFTLKAGQVVTIWAAGAGATHSPPTDLVWKAQNTWGCGNSLRTALINSTGEEVAMRKLVR
B7: CO-41 (MBD2): serologically defined colon cancer antigen, protein SEQ ID NO:23 (protein, listed as Homo sapiens)
chain: PSKLQKNKQRLRNDPLNQNKGKPDLNTTLPIRQTASIFKQPVTKVTNHPSNKVKSDPQRMNEQPRQLFWEKRLQGLSASDVTEQIIKTMELPKGLQGVGPGSNDETLLSAVASALHTSSAPITGQVSAAVEKNPAVWLNTSQPLCKAFIVTDEDIRKQEERVQQVRKKLEEALMADILSRAADTEEMDIEMDSGDEA
B8: CO-94 (seb4D): serologically defined colon cancer antigen, protein SEQ ID NO:17 (protein, listed as Homo sapiens)
chain: RPSLPRALPAAPHERSPARPGSVGGGAPPMLLQPAPCAPSAGFPRPLAAPGAMHLFAEGHHVHQDLRGRPAVPHYRRLAQEVLXGLRRHLRRPWSSPTAXRASPAATAS
modifications: X: residue not identified in the source
B9: SSX-2: serologically defined colon cancer antigen, protein SEQ ID NO:28 (protein, listed as Homo sapiens)
chain: MNGDDAFARRPTVGAQIPEKIQKAFDDIAKYFSKEEWEKMKASEKIFYVYMKRKYEAMTKLGFKATLPPFMCNKRAEDFQGNDLDNDPNRGNQVERPQMTFGRLQGISPKIMPKKPAEEGNDSEEVPEASGPQNDGKELCPPGKPTTSEKIHERSGPKRGEHAWTHRLRERKQLVIYEEISDPEEDDE
B10: CO-42 (TRIP4): serologically defined colon cancer antigen, protein SEQ ID NO:22 (protein, listed as Homo sapiens)
chain: AEVKTPFDLAKAQENSNSVKKKTKFVNLYTRERQDRLAVLLPGRHPCDCLGQKHKLINNCLICGRIVCEQEGSGPCLFCGTLVCTHEEQDILQRDSNKSQKLLKKLMSGVENSGKVDISTKDLLPHQELRIKSGLEKAIKHKDKLLEFDRTSIRRTQVIDDESDYFASDSNQWLSKLERETLQKREEELRELRHASRLSKKVTIDFAGRKILEEENSLAEYHSRLDETIQAIANGTLNQPLTKLDRSSEEPLGVLVNPNMYQSPPQWLTTQVQPHRRRLSVLQDLD

The molecules below were run on sera from colon cancer patients (assay: Spot assay: reactivity of serologically defined colon cancer antigens with colon cancer patient sera). Conditions: reactive sera/sera tested; includes autologous where applicable; sera 1:200.
Format: binding, human
Description: Serum samples from patients with colon cancer were screened using a modification of the plaque assay, termed a spot assay. In this method, 80×120 mm nitrocellulose membranes were precoated with a film of NZY/0.7% Agarose/2.5 mM IPTG and placed on a reservoir layer of NZY/0.7% Agarose in a 86×128 mm Omni Tray (Nalge Nunc International Corp., Naperville, Ill.). Approximately 1.0×10^5 pfU of monoclonal phage encoding individual serologically defined colon cancer antigens, in a volume of 20 μl, were mixed with 20 μl of exponentially growing E. coli XL-1 Blue MRF and spotted (0.7-μl aliquots) on the precoated nitrocellulose membranes. Membranes were incubated for 15 hours at 37° C. A total of 75 different serologically defined colon cancer antigens were spotted in duplicate per nitrocellulose membrane. The agarose film was then removed from the membrane and the filters were processed for reactivity with individual serum samples (1:200 dilution), as described in Scanlan, et al., Int. J. Cancer 76:652-658 (1998) and Scanlan, et al., Int. J. Cancer 83:456-64, (1999).
B1 was tested, and the “Reactivity of individual antigens” value was 4/76. In the case of B2, the “Reactivity of individual antigens” value is reported as 5/75. For B3, the “Reactivity of individual antigens” value was 6/75. B4 was tested, and the “Reactivity of individual antigens” value was 2/76. In the case of B5, the “Reactivity of individual antigens” value is reported as 3/76. With B6 the “Reactivity of individual antigens” value was 3/75. In the case of B7, the “Reactivity of individual antigens” value is reported as 3/76. B8 was tested, and the “Reactivity of individual antigens” value was 4/75. With B9 the “Reactivity of individual antigens” value was 2/75. For B10, the “Reactivity of individual antigens” value was 7/76.
